Laboratory results from the supplement of paper PMC10724198.
± gives the standard deviation of the averaged measurements.

Each sequence was assayed on Saccharomyces cerevisiae (assay: protein stability index of tFT-peptide fusion (C-terminal peptide) (PSI (0-1 scale)); higher = more stable (slower turnover)). Conditions: genetic background: wild type; temperature: 30 C.
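Further: PSI is a weighted mean of sequencing reads over stability bins, variants kept only with over 10 reads, mCherry proximal and sfGFP distal, peptide attached via GGGS linker.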

Sequence	protein stability index
PFLLVSHESSLE	0.718 ± 0.0077
PFPPPSTPASLY	0.772 ± 0.11
PFPRPAFPPYFP	0.746 ± 0.047
PFPRPALPAYQS	0.705 ± 0.018
PFPSLCFPPLNG	0.727 ± 0.055
PFPSPPAPPPLP	0.672 ± 0.048
PFRPPPPPSSPP	0.735 ± 0.037
PFSFSSLSASVF	0.7033 ± 0.0025
PFSRIFSPLSLL	0.68 ± 0.045
PFSSVATFLSRL	0.854 ± 0.17
PFVLVSDAHLIT	0.66 ± 0.035
PFYVEAVEKPEH	0.855 ± 0.035
PGAGGLSLVVRR	0.654 ± 0.053
PGAVNRASDGEV	0.6061 ± 0.005
PGCGRKSAFGLT	0.699 ± 0.037
PGCPRDRLLLQL	0.67 ± 0.025
PGCSFSYYFFAV	0.5725 ± 0.0016
PGDVSFALARNG	0.624 ± 0.074
PGGRPAAGALRV	0.685 ± 0.065
PGLCGGRRCVAL	0.638 ± 0.073
PGLNHLTPMLPP	0.635 ± 0.038
PGLPGHLPPLPL	0.62033 ± 0.00011
PGLRSQQLIAPI	0.652 ± 0.069
PGPCLLFPPFPP	0.643 ± 0.012
PGPPADLAPPPP	0.753 ± 0.018
PGPPYPPPPLHP	0.716 ± 0.008

Sequence	protein stability index
PGRLPPPFASFF	0.687 ± 0.0091
PGSKLGPAASRG	0.663 ± 0.071
PGSPPGLERLGR	0.694 ± 0.059
PGSPPPPDTLSP	0.701 ± 0.034
PGTLPDDLASTR	0.673 ± 0.034
PGVGRLGRTPVS	0.6959 ± 0.0054
PHHLLTAHPPPA	0.668 ± 0.035
PHLAAPAPALQD	0.613 ± 0.056
PHLPPLLTTTPS	0.61 ± 0.023
PHLPPQPPSPPA	0.716 ± 0.045
PHLRPPPPPPPQ	0.6892 ± 0.0049
PHLSRSVSKVLR	0.659 ± 0.066
PHPLPLPLPLSP	0.7134 ± 0.0017
PHPPPPPPPHSP	0.715 ± 0.08
PHPPPTAPGPSP	0.67 ± 0.00026
PHPRFYPSTPPP	0.64827 ± 7.8e-06
PHPRRSTKTQRR	0.7878 ± 0.0045
PHPTPGTPEPRD	0.744 ± 0.17
PHSLPPPTPPHS	0.629 ± 0.047
PHSPLSPAPQSP	0.787 ± 0.02
PHTFNVRPFHPD	0.674 ± 0.034
PHTLKPNPLSTA	0.61 ± 0.063
PHTLPPLLRHAP	0.693 ± 0.015
PHVCPVLSAAGR	0.629 ± 0.044
PHYCSAYTAGHG	0.72 ± 0.036
PIELTQRASVPP	0.6592 ± 0.0052

Sequence	protein stability index
PIFPALPRLSPS	0.725 ± 0.022
PIFPFSFFLPLI	0.605 ± 0.011
PIFPPLTSPSPP	0.68 ± 0.032
PILSGILFMSPP	0.755 ± 0.0092
PIPPRLPPPPPP	0.589 ± 0.057
PISLSFPPPLHP	0.65 ± 0.017
PKKNQSKQRKKT	0.708 ± 0.05
PKTPRFWLLFPA	0.699 ± 0.022
PKTSTPPPTSPA	0.675 ± 0.0073
PLALARSPPPSP	0.671 ± 0.02
PLALLHSHPPAN	0.677 ± 0.0066
PLAPLLSPPAFP	0.808 ± 0.12
PLAPPLPPPGPL	0.74 ± 0.022
PLAPPSPPPAPP	0.6618 ± 0.00085
PLCVICRRWGAS	0.646 ± 0.046
PLEPDFLIGGNA	0.807 ± 0.16
PLEYPAQATMKP	0.657 ± 0.021
PLFLPLVPPQIL	0.682 ± 0.028
PLFPPPSLLTPH	0.719 ± 0.14
PLGGPYNSHMFT	0.956 ± 0.038
PLHLLPPPSSYP	0.759 ± 0.033
PLHPDSCGSLSS	0.647 ± 0.038
PLHPPATPAATT	0.69 ± 0.025
PLHRPLPRPPSP	0.745 ± 0.019
PLLHDSHAIIPH	0.716 ± 0.079
PLLPLLPSPASP	0.674 ± 0.0098

Sequence	protein stability index
PLLPRLPPLSPP	0.691 ± 0.07
PLLRRLFPLSSR	0.608 ± 0.052
PLLYSDRPSIFL	0.663 ± 0.026
PLNPSPSCPPTL	0.676 ± 0.023
PLPAPSPLPSPL	0.735 ± 0.038
PLPCLPPAGSTP	0.818 ± 0.02
PLPFSTSPYAGR	0.675 ± 0.011
PLPHPPPLALRT	0.655 ± 0.063
PLPKARRHHSPA	0.653 ± 0.033
PLPLPSLSAIFL	0.677 ± 0.016
PLPLPSPPPASP	0.732 ± 0.025
PLPLSPLLLPPR	0.6836 ± 0.0045
PLPPAPPSLSPP	0.651 ± 0.01
PLPPHPPPPRPL	0.698 ± 0.035
PLPPLAPPHRSP	0.682 ± 0.091
PLPPLLAGAGLS	0.704 ± 0.018
PLPPLTPASPHP	0.72 ± 0.035
PLPPPLPASSPP	0.681 ± 0.045
PLPPPLPLSSPP	0.67 ± 0.012
PLPPPPAHPPPP	0.616 ± 0.03
PLPPPPPLPLSP	0.693 ± 0.07
PLPPPPPPIPLT	0.702 ± 0.14
PLPPPPPPPSSP	0.726 ± 0.011
PLPPPPVSLPAP	0.617 ± 0.064
PLPPRPHPPPPY	0.695 ± 0.037
PLPPRPPPLPLP	0.716 ± 0.013

Sequence	protein stability index
PLPPTPPPALSQ	0.7 ± 0.018
PLPRLPLLPPLR	0.67 ± 0.045
PLPSCTLCRPAL	0.695 ± 0.03
PLPSLSPLPPPL	0.701 ± 0.017
PLPSPSYLKSPC	0.705 ± 0.013
PLPSVLFCLTRW	0.665 ± 0.02
PLPTLPFPCSPS	0.706 ± 0.016
PLPVLFFFSACS	0.661 ± 0.043
PLRISQLDVVRS	0.655 ± 0.045
PLRPLPTPRPPP	0.686 ± 0.0071
PLRYRPPPPPPP	0.672 ± 0.031
PLSCFIPPVSSW	0.666 ± 0.027
PLSPLAPPPAPS	0.661 ± 0.075
PLSPNIHQRPPA	0.75 ± 0.0096
PLSPPPPFPFPP	0.71 ± 0.064
PLSPPVSLPLTP	0.672 ± 0.098
PLSPSAVGCPGF	0.645 ± 0.16
PLSPSFAPPSPA	0.69672 ± 0.00044
PLSPTTRTRSQS	0.642 ± 0.067
PLSTGLPFPRSP	0.718 ± 0.028
PLTACPSAPTLP	0.667 ± 0.0078
PLTGSLIPLFPL	0.732 ± 0.029
PLTPPRLPRPFH	0.7123 ± 0.0065
PLVAGRVIVTLR	0.554 ± 0.011
PLVPISPLPYLP	0.737 ± 0.012
PLVPPPADPLCV	0.63 ± 0.0071

Sequence	protein stability index
PLVRGSLGALGR	0.657 ± 0.12
PLYSKHPTRFFP	0.714 ± 0.011
PLYTSFSPSFYL	0.669 ± 0.043
PMFESFHLPAPI	0.715 ± 0.018
PNAFTEPTHPGR	0.742 ± 0.066
PNFYPLWLNLPL	0.813 ± 0.086
PNLIFHHSFSFL	0.692 ± 0.031
PNPTPYRRPCPP	0.6846 ± 0.0041
PNTSVAATPHDF	0.67 ± 0.085
PNVSPTPPYSSP	0.691 ± 0.023
PNYQRRTKTNSP	0.703 ± 0.04
PPAALPPSTLFS	0.673 ± 0.04
PPAFFPHSRPLL	0.598 ± 0.038
PPAGCSPSPRSP	0.66 ± 0.056
PPALPPTRPPVS	0.696 ± 0.047
PPALRPNPPLPL	0.7769 ± 0.0016
PPAPLPSPRRSL	0.696 ± 0.065
PPAPPPPLLNLP	0.714 ± 0.014
PPAPPTSLPSPL	0.726 ± 0.019
PPAPSPPQPSPL	0.686 ± 0.0088
PPAPSPPVPPQL	0.727 ± 0.026
PPAPSSLPSPPS	0.715 ± 0.017
PPAPTPLSPLAS	0.693 ± 0.051
PPAPTPSPSPPP	0.68 ± 0.1
PPARATPHDRCP	0.724 ± 0.037
PPASLPPPTAFN	0.764 ± 0.049

Sequence	protein stability index
PPASLRRPRSYL	0.748 ± 0.025
PPASPSPSLLSP	0.6491 ± 0.0025
PPASSPPSRPPP	0.62626 ± 0.00058
PPATPPPPPPFL	0.68 ± 0.15
PPATPPRPLLPP	0.672 ± 0.091
PPCPVTSFRPSI	0.755 ± 0.05
PPDPPPHASPAP	0.72 ± 0.03
PPDRNPANTSCD	0.638 ± 0.029
PPFPPDTLPLLP	0.746 ± 0.017
PPFPPPCFPPPL	0.72 ± 0.0084
PPFRPFTSPVTY	0.579 ± 0.031
PPFSPSPPHVCP	0.673 ± 0.045
PPFVLLVPTSLS	0.68 ± 0.018
PPGLPLSPCPPP	0.685 ± 0.061
PPGSFWLQARVR	0.705 ± 0.071
PPGYGISYLLIE	0.66 ± 0.07
PPHAYTSTPSLF	0.67 ± 0.028
PPHGPPPLPPPS	0.678 ± 0.15
PPHIIPHPKAHT	0.687 ± 0.017
PPHLPPPPSPSV	0.6729 ± 0.0053
PPHPAPPLQPQT	0.64 ± 0.14
PPHPPPVTPHAS	0.722 ± 0.029
PPHPPRCRRSPC	0.718 ± 0.037
PPHPPYPPQPSL	0.7021 ± 0.005
PPHPQRANAPGH	0.6615 ± 0.0057
PPHTSPLSPRPP	0.658 ± 0.052

Sequence	protein stability index
PPIPLPPLAPPL	0.699 ± 0.038
PPLALLLSPVPP	0.688 ± 0.046
PPLAPASPSPLP	0.698 ± 0.023
PPLCTTPTPRRV	0.735 ± 0.041
PPLFPPPPPLPR	0.718 ± 0.027
PPLFTLSFSHFV	0.679 ± 0.021
PPLHPPLPPPPS	0.71 ± 0.06
PPLLALSASRVT	0.698 ± 0.017
PPLLLLRRRSPS	0.699 ± 0.062
PPLLPPPPPPAP	0.666 ± 0.032
PPLLPYHPTRFD	0.713 ± 0.012
PPLLRAPLLPPC	0.708 ± 0.021
PPLPAPPPLRPP	0.606 ± 0.012
PPLPAPSPPAPP	0.68 ± 0.022
PPLPDSPPPVPP	0.633 ± 0.017
PPLPFPSLPTPP	0.696 ± 0.042
PPLPLPPLALTR	0.722 ± 0.037
PPLPLPPRPTPP	0.716 ± 0.071
PPLPPLSPAPPR	0.681 ± 0.0073
PPLPPPHLAFLH	0.685 ± 0.035
